Experiment: yeast display, Sf9 membrane polyspecificity reagent, FACS + sequencing; frameworks hold sequencing errors
Procedure, shortened: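 Galactose-induced (36–48 hours) yeast carrying a synthetic nanobody display library were exposed to 10% biotinylated, detergent-solubilized Sf9 membrane reagent at 4 °C for 1 hour. FACS followed streptavidin microbead enrichment, using low and high (top ~1%) gates for expression (anti-HA) and reagent binding (streptavidin). Colony PCR, MiSeq 2 × 250 sequencing and CDR-length filtering followed. Labels for polyreactivity reflect the gate of origin.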

Sequence	polyreactivity (PSR sort gate)
QVQLVESGGALVQAGGSLRFSCASSGRIFSSNTMGWYRQAPGKERELVAAISRGSITYYAHSVKGRFTISRDNAKNTVYLQMNSLKPEDTAVYYCAAGVGLDNYGYGYWGQGTQVTVSS	low polyreactivity
QVQLVESGGGLVQAGGSLRLSCAASGSNSSFYAMGWYRQAPGKERELVAGITSGGSTNYADSVKGRFTISRDNAKNTVYLQLNSLKPEDTAVYYCAAERTPSFRAYDYWGQGTLVTVSS	low polyreactivity
QVQLAESGGGLVQAGGSLRLSSAASGRTIGFNGMGWYRQAPGKERELVAAITWNGDSTYADSVKGRFTISRDNAKNTVYLQMNSLKPDDTAVYYCGAEVVAQMNYWGQGTQVTVSS	low polyreactivity
QVQLVESGGGIFQAGGSLRLSCAASGRIYNYYAMGWTRQAPGQEREFVAAITRSGGRPYYADSVKGRFTISRDKGKNTVYLLMNSLKPEDTAVYYFAAPFGTYAYDYWGQGTLVTVSS	high polyreactivity
QVQLVESGGGLVQAGGSLRLSCAASGRIFYYNTMGWYREAPGTERELVAAISSGAGRTYYADSVKGRFTISRDNAMNTVYLQMNSLKPEDTAVYYCAARFYVIKWYDYWGQGTQVTVSS	high polyreactivity
QVQLVESGGGLVQAGGSLRLSCAASGRIFDHNAMGWYRQAPGKERELVAAIDWSGGSTYYADSVKGRFTISRDNAKNTVYLQMNSLKPEDTAVYYCNVYWHTFSWDDYGYWGQGTQVTVSS	low polyreactivity
QVQLVESGGGLVQAGGSLRLSCAASGFIFGYYAMGWYRQAPGKERELVAAINKNGGSTYYADSVKGRFTISRDNAKNTVYLQMNSLKPEVTAVYYCAARARGYAWTYDYWGQGTQVTVSS	high polyreactivity
QVQLVESGGGLVQAGGSLRLSCAASGSIFSYYAMGWYRQAPGKERELVAAISQNGGSTYYADSVKGRFTISRDNAKNTVYLQMNSLKPEDTAVYYCNAYSVYVRGEYWGQGTQVTVSS	high polyreactivity
QVQLVESGGGLVQAGGSLRLSCAASGRTSVRNAMGWYRQAPGKERELVAAISRRGTRTYYADSVKGRFTISRDNAKNTVYLQMNSLKPEDTAVYYCAASNGYQAVTYDYWGQGTQVTVSS	high polyreactivity
QVQLVESGGGLVQAGGSLRLSCAASGRTFSYYAMGWYRQAPGKERELVAYITSSGGSTYYADSVKGRFTISRDNAKNTVYLQMNSLKPEDTAVYYCATRGGSRARGMDYWGQGTQVTVSS	high polyreactivity
QVQLVESGGGLVQAGGSLRLSCAASGYILWNAMGWYRQAPGKERELVAAIRFRGGSTSYADSVKGRFTISRDNAKNTVYLQMNSLKPEDTAVYYCNARWWVIRPYQRHDYWGQGTQVTVSS	low polyreactivity
QVQLVESGGGLVQAGGSLRLSCAASGFIFQPYALGWYRQAPGKERELDASITLRGGSTYYADSVKGRFTISRDNAKNTVYLQMNSLKPEDTAVYYCAARIYQYWGGHYDYWGQGTQVTVSS	high polyreactivity
QVQLVESGGGLVQAGGSLRLSCAASGITFPRYAMGWYRQAPGKERELVATITRSGGGTYYADSVKGRFTISRDNAKNTVNLQMNSLKPEDTAVYYCAAGALQRGVYGYGYWGQGTQVTVSS	high polyreactivity
QVQLVESGGGLVQAGGSLRLSCAASGLILGPYAMGWYRKAPGKERELVAAITRGGGTYYADSVKGRFTISRDNAKNTVYLQMNSLKPEDTAVYDCARIYYVSIYRYDYWGQGTQVTVSS	high polyreactivity
QVQLVESGGGLVQAGGRLRLSCAASGFTFYYYTMGWYRQAPGKEREVVAAITWRGGSTNYADSVKGRFTISRDNAKNTVYLQMNSLKPEDTAVYYCAAVTYWFWPGMDYWGQGTQVTVSS	low polyreactivity
QVQLVESGGGLVQAGGSLRLSCAASGRTFGPNVMGWYRQAPGKERELVAAITYSSASTYYADSVKGRFTISRDNAKNTVYLQMNSLKPEDTAVYYCAARDRYYFGGMYYWGQGTQVTVSS	low polyreactivity
QVQLVESGGGLVQAGGSLRLSCAASGSTFNGYAMGWYRQAPGKERELVAAINWTGDSTYYADSVKGRFTISRDNAKNTVYLQMNSLKPEDTAVYYCAAIRRQKGLWDYYYWGQGTQVTVSS	low polyreactivity
QVQLVESGGGLVQAGGSLRLSCAASVRIFGVYAMGWYRQAPGKERELVAAITSGGSTTYADSVKGRFTISRDNAKNTVYLQMNSLKPEDTAVYYCNKEPQPFFLYGYWGQGTQVTVSS	low polyreactivity
QVQLVESGGGLVQAGGSLRLSCAASGSIFKVNTMGWHRQAPGTERELVAAISSSDDSTYYADSVKGRFTISRDNAKNTVYLQMNSLKPEDTAVYYCAADGSSVDSGGINDEYWGQGTQVTVSS	low polyreactivity
QVQLVESGGGLVQAGGSLRLSCAASGFTFIQYDMGWYRQAPGKERELVAAISSSGGSTYYADSVNGRFTISRDNAKNTFYLQMNSLKPEDTGVYYCAADPWVRLEYDYWGQGTQVTVSS	low polyreactivity
QVQIVESGGALVQAGGGHRLSCAASGRTFTYNAMGWYRQAPGKERELVAAITSGGSTNYADSVKGRFTISRDNAKNTVYLQMNSLKPEDTAVYYCAARRVYYSYRRYYYWGQGTQVTVSS	low polyreactivity
QVQLVESGGGVVQAGGSLRLSCAASGSTFDVYAMGWYRQAPGKERELVAAITSGGTTNYADSVKGRFTNSRDNAKNTVYLQMNSLKPEDTAVYYCAADSPWGGGYFVLYNYWGQGTQVTVSS	low polyreactivity

Sequence	polyreactivity (PSR sort gate)
QVQLVESGGGLVQAGGSLRLSCAASGRTFYVNTMGWYRQATGKETELVARITRGGSTYYADSVKGRFTISRDNAKNTVYLQMNSLKPEDTAVYYCATDHFPVYSTHVIYEFDYWGQGTQVTVSS	low polyreactivity
QVQLVESGGGLVQAGGSLRLSCAASGFTFRFNAMGWYRHAPGKERELVAGITSGGTTNYAYSVKGRFTISRDNAKNTVYLHMNSLKPEDTAVYYCNAAWYRWKQRYDYWGQGTLVTVSS	low polyreactivity
QVQLVESGGGLVQAGGSLRLSCAASGLTFQSYDMGWYRQAPGKERELVAAISRRGGSTYYADSVKGRFTISRDNAKNTVYLQMNSLKPEDTAVYYCAAEYRSWSWRMDYWGQGTQVTVSS	high polyreactivity
QVQLVESGGGLVQAGGSLRLSCAASGSIFEQYAMGWYRQAPGKERELVAGINWSTGSTYYADSVKGRFTISRDNAKNTVYLQMNSLKPEDTAVYYCAAEVAGALSDYDYWGQGTQVNVSS	low polyreactivity
QVQLVESGGGLVQAGGSLRLSCAASGFTFYDYVMGWYRQAPGKERELVASISARTGSTYYADSVKGRFTISRDNAKNTVYLQMNSLQPEDTAVYYCAADDGQYYRTEYDYWGQGTQVTVSS	low polyreactivity
QVQLVESGGGLVQAGGSLRLSCAASGSNFHYNAMGWYRQAPGKERELVAAIRWGGGSTFYADSVKGRFTISRDNAKNTVYLQMNSLKPEDTAVYYCAADYWYETRDFTFFDLYVSYEYWGQGTQVTVSS	low polyreactivity
QFQLVESGGRLDQAGGSLRLSCAASSSIFDDYAMGWYRQAPGKERELVAAISWSGGSTYYADSVQGRFTISRDNPNHTVYLQMNSLKREDTAVYYCAAYAYDYLYGEYYWGQGTQVTVSS	low polyreactivity
QVQLVESGGGLVQEGGSLRLSCAASGFTFAYYAMGWYRQAPGKERELVASISYNGGITNYADSVKGRFTISRYNAKNTVYLQMNSLKPEDTAVYYCAAGVFFFTFDYWGQGTQVTVSS	low polyreactivity
QVQLVESGGGLVQAGGSLRLSCAASGSILGYYAMGWYRQAPGKERELVAAITASGGSTYYADSVKGRFTISRDNAKNTVYLQMNSLKPEDTAVYYCAAQYYATYGYWGQGTQVTVSS	low polyreactivity
QVQLVESGGGLVQAGGSLRLSCAASGRIFNKNAMGWYRQAPGKERELVAAITYSGGSTYYADSVKGRFTISRDNAKNTVYLQMNSLKPEDTAVYYCARDLYYVYSFAPYRYEYWGQGTQVTVSS	low polyreactivity
QVQLVESGGGLVQAGGSLRLSCAASGSTFYANGMGRYRQAPGKERELDAAISWSGGSTYYADSVKGRFTISRDNAKNTVYLQMNSLKPEDTAVYYCAAAYRSFINGRWYDYWGQGTQVTVSS	low polyreactivity
QVQLVESGGGLVQAGGSLRLSCAASGSILSYYAMGWYRQAPGKERELVAAISKSGGRTYYADSVKGRFTISRDNAKNTVYLQMNSLKPEETAVYYCAAEIVVFYSEGQRNTFYYWGQGTQVTVSS	high polyreactivity
QVQLLESGGGLVQAGGSLRLSCAASGFTFGRYAMGWYRQAPGKERELVAAINTSGDRTFYADSVKGRFTISRDNAKNTVYLQMNSLKPVDTAVYYCAADVQSWVYPGSLYYWTYDFWGQGTQVTVSS	high polyreactivity
QVQLVESGGALVQARGSLRLSCAASGRTFQIYAKGWDRQGHGKEMELVARITGVGSTNYADSVKGRFTISRDNAKNTVYLQMNSLKPEDTAVYYCAAYWILNNYEMYYWGQGTQVTVSS	low polyreactivity
QVQLVESGGGLVQAGGSLRLSCAASGSIFNRNAMGWYRQAPGKERELVATITRNGGRTYYADSVKGRFTISRDNAKNTVYLQMNSLKPEDTAVYYCNAVRQRLRPGNLFDLDYWGQGTQVTVSS	low polyreactivity
QVQLVESGGCLVQAGGSLRLSGAASGRTQVPYAMGWSRQAHGNERELVASISSGGSTNYADSVKGRFTISRDNAKNTVYLQMNSLKPEDTAVYYCNAEPIGSEVDYWGQGTQVTVAS	low polyreactivity
QVQLVESGGGLVQAGGSHRLSCAASGSTFFRNAKGWYSQAPGKEREWVAANSYSGDSTYYADSVKGRFTISRDNEKNTVSLQMNRLKPDDTAVYYSNAVLFRYRYNYWGQGTQVNVSS	high polyreactivity
QVQLVESGGGLVQAGGSLRLSCAASGLTFDGNTMGWYRQAPGKERELVAAISIDGGNTYADSVKGRFTISRDNAKNTVYLQMNSLKPEDTAVYYDYWGQGTEVTVSS	low polyreactivity
QVQLVESGGGLVQAGGSLRLSCDASGSTFDQYVMGWYRQAPWKERELVAAISVSGGRTYYADSVKGRFTISRDNAKNTVYLQMKSLKPDDTAVYYCNAPKRYSSIGYDYWGQGTQVTVSS	high polyreactivity
QVQLVESGGGLVQAGGSLRLSFAASGRIIGYYAMGWYRQAPGKERELVAAITRGGSTNYADSVKGRFTISRDNAKNTVYLQMNSLKPEDTAVYYCAADLARYGKRYDYWGQGTQVTVSS	low polyreactivity
QVQLVESGGGLVQAGGSLRLSCAASGSIFHPNAMGWYRQAPGKERELVAAITKSGGSTYYADSVKGRFTISRDNAKNTVYLQMNSLKPEDTAVYYCNALRYRRVGTLGYDYWGQGTQVTVSS	high polyreactivity

From the nanobody polyreactivity screen of Harvey et al. (2022)
